Laboratory results from article PMC4988710, “A Model for Dimerization of the SOX Group E Transcription Factor Family”.

Assays:
[1] = molecular target: T1, SOX9 D-HMG (high solubility variant) (Homo sapiens) (UniProt P48436); assay: EMSA; settings: 10 mM sodium phosphate pH 6.0, 100 mM NaCl, 5 mM EDTA, on ice 30 min (1 h for 32P titrations); 9 nM DNA for Kd, 2 uM DNA for SYBR Green EMSA
T1 sequence: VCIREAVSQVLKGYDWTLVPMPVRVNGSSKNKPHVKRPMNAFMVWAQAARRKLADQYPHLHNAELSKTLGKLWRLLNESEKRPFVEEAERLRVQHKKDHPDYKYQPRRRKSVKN

[2] = molecular target: T2, SOX9 HMG (Homo sapiens, UniProt P48436 110-184); assay: EMSA; Hill 1.6 ± 0.5; 10 mM sodium phosphate pH 6.0, 100 mM NaCl, 5 mM EDTA, on ice 30 min (1 h for 32P titrations); 9 nM DNA for Kd, 2 uM DNA for SYBR Green EMSA; settings: protein: recombinant; tags: 6xHis; label: 32P 5'; blunt
[3] = molecular target: T2, SOX9 HMG; assay: EMSA; Hill 2.2 ± 0.4; 10 mM sodium phosphate pH 6.0, 100 mM NaCl, 5 mM EDTA, on ice 30 min (1 h for 32P titrations); 9 nM DNA for Kd, 2 uM DNA for SYBR Green EMSA; settings: protein: recombinant; tags: 6xHis; label: 32P 5' for Kd; unlabeled (SYBR Green) in mutant EMSA; blunt; self-complementary, 2 copies of one strand
[4] = molecular target: SOX9 D-HMG L145E (Homo sapiens, UniProt P48436 71-184, L145E); assay: EMSA; dimerization retained; 10 mM sodium phosphate pH 6.0, 100 mM NaCl, 5 mM EDTA, on ice 30 min (1 h for 32P titrations); 9 nM DNA for Kd, 2 uM DNA for SYBR Green EMSA; settings: protein: recombinant; tags: 6xHis; chain copies: 2; label: 32P 5' for Kd; unlabeled (SYBR Green) in mutant EMSA; blunt; self-complementary, 2 copies of one strand
[5] = molecular target: SOX9 D-HMG A118E (Homo sapiens, UniProt P48436 71-184, A118E); assay: as above; settings: protein: recombinant; tags: 6xHis; chain copies: 2; label: 32P 5' for Kd; unlabeled (SYBR Green) in mutant EMSA; blunt; self-complementary, 2 copies of one strand
[6] = molecular target: SOX9 D-HMG L142Q (Homo sapiens, UniProt P48436 71-184, L142Q); assay: EMSA; dimerization lost; single and double occupancy bands; 10 mM sodium phosphate pH 6.0, 100 mM NaCl, 5 mM EDTA, on ice 30 min (1 h for 32P titrations); 9 nM DNA for Kd, 2 uM DNA for SYBR Green EMSA; settings: protein: recombinant; tags: 6xHis; chain copies: 2; label: 32P 5' for Kd; unlabeled (SYBR Green) in mutant EMSA; blunt; self-complementary, 2 copies of one strand
[7] = molecular target: SOX9 D-HMG A119E (Homo sapiens, UniProt P48436 71-184, A119E); assay: as above; settings: protein: recombinant; tags: 6xHis; chain copies: 2; label: 32P 5' for Kd; unlabeled (SYBR Green) in mutant EMSA; blunt; self-complementary, 2 copies of one strand

GGGATCCTACACAAAGCCGGCTTTGTGTAGGATCCC (double strand) [CC36]
Kd [1]: 98 nM

GGGTTAACAGAACAATGGAATCTGGTAGA (double strand) [S9WT]
Kd [1]: 82 nM

B1: S9WT (dsDNA)
DNA 1: GGGTTAACAGAACAATGGAATCTGGTAGA
DNA 2: TCTACCAGATTCCATTGTTCTGTTAACCC
Kd [2]: 101 ± 33 nM

B2: CC36 (dsDNA)
DNA 1: GGGATCCTACACAAAGCCGGCTTTGTGTAGGATCCC
DNA 2: B2 DNA 1
Kd [3]: 109 ± 10 nM | binding result [4]: binds | binding result [5]: binds | binding result [6]: binds | binding result [7]: binds
